From US7449563B2, “Methods and compositions for destabilizing microtubules” (Academia Sinica, priority 2003, dated 2008)
No end group written: not given here.

Molecular target: T1, polymerized microtubules (bovine brain tubulin) (Bos taurus, UniProt P81947+Q6B856)
T1 construct: containing 125 μg bovine brain tubulin (Cytoskeleton, Denver, Colo.); purchased Cytoskeleton, Denver, Colo; host or cells: bovine brain (tissue-purified)
Assay: Microtubule depolymerization assay (centrosomes omitted)
Format: biochemical
Details: centrosomes absent; nocodazole 15 μM as positive control; data not shown
Experimental: Microtubule Depolymerization Assay
In this assay, centrosomes are omitted from the above reaction mixtures to determine the effects of various truncated GST-CPAP proteins or synthetic peptides on microtubule polymerization in the absence of centrosomes. Polymerized microtubules were stained using FITC-conjugated anti-α-tubulin monoclonal antibodies, as above. Nocodazole (15 μM) was added to some reactions mixtures as a positive control for microtubule depolymerization.

T1 sequence (P81947 whole entry): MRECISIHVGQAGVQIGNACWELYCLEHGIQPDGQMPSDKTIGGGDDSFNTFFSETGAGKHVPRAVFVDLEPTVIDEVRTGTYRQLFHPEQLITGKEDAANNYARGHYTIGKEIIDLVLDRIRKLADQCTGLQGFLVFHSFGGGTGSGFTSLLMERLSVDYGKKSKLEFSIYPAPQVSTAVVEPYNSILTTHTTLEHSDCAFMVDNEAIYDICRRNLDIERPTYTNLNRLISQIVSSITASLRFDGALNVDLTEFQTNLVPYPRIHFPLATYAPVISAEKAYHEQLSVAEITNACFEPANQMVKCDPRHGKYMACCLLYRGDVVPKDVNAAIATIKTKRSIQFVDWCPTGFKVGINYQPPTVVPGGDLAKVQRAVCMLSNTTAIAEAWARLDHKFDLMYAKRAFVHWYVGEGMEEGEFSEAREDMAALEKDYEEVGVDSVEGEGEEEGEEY
T1 sequence (Q6B856 whole entry): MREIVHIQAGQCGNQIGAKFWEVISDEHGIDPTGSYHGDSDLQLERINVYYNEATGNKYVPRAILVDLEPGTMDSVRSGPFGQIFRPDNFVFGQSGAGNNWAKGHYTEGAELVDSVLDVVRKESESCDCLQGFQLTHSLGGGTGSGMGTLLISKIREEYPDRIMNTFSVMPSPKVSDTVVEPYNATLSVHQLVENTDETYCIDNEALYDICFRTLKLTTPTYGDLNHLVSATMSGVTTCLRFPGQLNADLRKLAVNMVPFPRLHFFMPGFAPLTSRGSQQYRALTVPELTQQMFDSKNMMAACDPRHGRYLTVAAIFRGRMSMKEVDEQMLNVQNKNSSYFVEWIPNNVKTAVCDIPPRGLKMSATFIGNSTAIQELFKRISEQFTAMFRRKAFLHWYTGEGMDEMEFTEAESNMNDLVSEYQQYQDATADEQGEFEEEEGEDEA

| Molecule | Disassembly of polymerized microtubules in the absence of centrosomes (in words) |
| --- | --- |
| COC(=O)Nc1nc2ccc(C(=O)c3cccs3)cc2[nH]1 [nocodazole, Nocodazole, reference compound] | disassembled |
| GST-PN2-1: GST fusion polypeptide with sub-region PN2-1 of PN2 (CPAP residues 132-190 per b157) (EFKEGAYKDPLFKKLEQLKEVQQKKQEQLKRQQLEQLQRLMEEQEKLLTMVSGQCTLPG; also: GST fusion, terminus not given here) | no such effect |

Tested on: HeLa cells
Assay: Cell-based assay for CPAP activity: microtubule reassembly in cold-treated transfected HeLa cells
Design: species or system human
Details: transfected HeLa cells expressing lower levels of the construct
Experimental: Cell Culture and Transfection
HeLa cells were maintained in DMEM supplemented with 10% fetal bovine serum. cDNA clones encoding different portions of CPAP were subcloned, in an appropriate reading frame, into the CMV promoter-driven EGFP-C1 expression vector (Clontech, Palo Alto, Calif.). Transient transfections were performed using Lipofectamine 2000 (Invitrogen, Carlsbad, Calif.) according to the manufacturer's instructions.
Cold Treatment, Immunofluorescence and Confocal Microscopy
HeLa cells were grown on coverslips for at least 24 hr. Cold treatment was performed by incubating the cells at 4° C. for 1 hr, then replacing the cold medium with medium warmed to 30° C. and incubating the cells for 2 min at 30° C. The cells were then fixed with 1% formaldehyde for 30 min at room temperature.
The fixed cells were incubated in the presence of anti-α-tubulin monoclonal antibodies (N356, Amersham, Piscataway, N.J.) and anti-γ-tubulin polyclonal antibodies (Sigma, Saint Louis, Mo.). Bound anti-α-tubulin monoclonal antibodies (N356) were detected with Alexa 568, a Texas Red-conjugated goat anti-mouse IgG, or Alexa 647, a far-red fluorophore-conjugated goat anti-mouse IgG. Bound anti-γ-tubulin polyclonal antibodies were detected with Alexa 568 (Molecular Probes Inc.). The resulting […] signals were detected using a laser scanning confocal system (MRC 1000, Bio-Rad Laboratories, Hercules, Calif.).
The effect of various polypeptides derived from CPAP was determined by evaluating the amounts of mitotic spindle formation in the transfected cells. Decreased mitotic spindle formation indicated the presence of an activity that inhibited microtubule formation or destabilized microtubules.

| Molecule | Inhibition of microtubule reassembly in cold-treated cells (in words) |
| --- | --- |
| GFP-CPAP-fl: GFP-tagged full-length CPAP polypeptide, residues 1-1338, expressed from a transfected vector (protein, UniProt Q9HC77 1-1338, looked up, full-length GFP tag, GFP-tagged full-length CPAP polypeptide, residues 1-1338, expressed from a transfected vector) MFLMPTSSELNSGQNFLTQWMTNPSRAGVILNRGFPILEADKEKRAAVDISTSFPIKGTHFSDSFSFINEEDSLLEEQKLESNNPYKPQSDKSETHTAFPCIKKGPQVAACHSAPGHQEENKNDFIPDLASEFKEGAYKDPLFKKLEQLKEVQQKKQEQLKRQQLEQLQRLMEEQEKLLTMVSGQCTLPGLSLLPDDQSQKHRSPGNTTTGERATCCFPSYVYPDPTQEETYPSNILSHEQSNFCRTAHGDFVLTSKRASPNLFSEAQYQEAPVEKNNLKEENRNHPTGESILCWEKVTEQIQEANDKNLQKHDDSSEVANIEERPIKAAIGERKQTFEDYLEEQIQLEEQELKQKQLKEAEGPLPIKAKPKQPFLKRGEGLARFTNAKSKFQKGKESKLVTNQSTSEDQPLFKMDRQQLQRKTALKNKELCADNPILKKDSKARTKSGSVTLSQKPKMLKCSNRKSLSPSGLKIQTGKKCDGQFRDQIKFENKVTSNNKENVTECPKPCDTGCTGWNKTQGKDRLPLSTGPASRLAAKSPIRETMKESESSLDVSLQKKLETWEREKEKENLELDEFLFLEQAADEISFSSNSSFVLKILERDQQICKGHRMSSTPVKAVPQKTNPADPISHCNRSEDLDHTAREKESECEVAPKQLHSLSSADELREQPCKIRKAVQKSTSENQTEWNARDDEGVPNSDSSTDSEEQLDVTIKPSTEDRERGISSREDSPQVCDDKGPFKDTRTQEDKRRDVDLDLSDKDYSSDESIMESIKHKVSEPSRSSSLSLSKMDFDDERTWTDLEENLCNHDVVLGNESTYGTPQTCYPNNEIGILDKTIKRKIAPVKRGEDLSKSRRSRSPPTSELMMKFFPSLKPKPKSDSHLGNELKLNISQDQPPGDNARSQVLREKIIELETEIEKFKAENASLAKLRIERESALEKLRKEIADFEQQKAKELARIEEFKKEEMRKLQKERKVFEKYTTAARTFPDKKEREEIQTLKQQIADLREDLKRKETKWSSTHSRLRSQIQMLVRENTDLREEIKVMERFRLDAWKRAEAIESSLEVEKKDKLANTSVRFQNSQISSGTQVEKYKKNYLPMQGNPPRRSKSAPPRDLGNLDKGQAASPREPLEPLNFPDPEYKEEEEDQDIQGEISHPDGKVEKVYKNGCRVILFPNGTRKEVSADGKTITVTFFNGDVKQVMPDQRVIYYYAAAQTTHTTYPEGLEVLHFSSGQIEKHYPDGRKEITFPDQTVKNLFPDGQEESIFPDGTIVRVQRDGNKLIEFNNGQRELHTAQFKRREYPDGTVKTVYANGHQETKYRSGRIRVKDKEGNVLMDTEL | no significant inhibition |

Same assay, conditions: transiently transfected HeLa cells

| Molecule | Inhibition of microtubule reassembly in cold-treated mitotic cells (in words) |
| --- | --- |
| GFP-CPAP-fl: GFP-tagged full-length CPAP polypeptide, residues 1-1338, expressed from a transfected vector (protein, UniProt Q9HC77 1-1338, looked up, full-length GFP tag, GFP-tagged full-length CPAP polypeptide, residues 1-1338, expressed from a transfected vector) MFLMPTSSELNSGQNFLTQWMTNPSRAGVILNRGFPILEADKEKRAAVDISTSFPIKGTHFSDSFSFINEEDSLLEEQKLESNNPYKPQSDKSETHTAFPCIKKGPQVAACHSAPGHQEENKNDFIPDLASEFKEGAYKDPLFKKLEQLKEVQQKKQEQLKRQQLEQLQRLMEEQEKLLTMVSGQCTLPGLSLLPDDQSQKHRSPGNTTTGERATCCFPSYVYPDPTQEETYPSNILSHEQSNFCRTAHGDFVLTSKRASPNLFSEAQYQEAPVEKNNLKEENRNHPTGESILCWEKVTEQIQEANDKNLQKHDDSSEVANIEERPIKAAIGERKQTFEDYLEEQIQLEEQELKQKQLKEAEGPLPIKAKPKQPFLKRGEGLARFTNAKSKFQKGKESKLVTNQSTSEDQPLFKMDRQQLQRKTALKNKELCADNPILKKDSKARTKSGSVTLSQKPKMLKCSNRKSLSPSGLKIQTGKKCDGQFRDQIKFENKVTSNNKENVTECPKPCDTGCTGWNKTQGKDRLPLSTGPASRLAAKSPIRETMKESESSLDVSLQKKLETWEREKEKENLELDEFLFLEQAADEISFSSNSSFVLKILERDQQICKGHRMSSTPVKAVPQKTNPADPISHCNRSEDLDHTAREKESECEVAPKQLHSLSSADELREQPCKIRKAVQKSTSENQTEWNARDDEGVPNSDSSTDSEEQLDVTIKPSTEDRERGISSREDSPQVCDDKGPFKDTRTQEDKRRDVDLDLSDKDYSSDESIMESIKHKVSEPSRSSSLSLSKMDFDDERTWTDLEENLCNHDVVLGNESTYGTPQTCYPNNEIGILDKTIKRKIAPVKRGEDLSKSRRSRSPPTSELMMKFFPSLKPKPKSDSHLGNELKLNISQDQPPGDNARSQVLREKIIELETEIEKFKAENASLAKLRIERESALEKLRKEIADFEQQKAKELARIEEFKKEEMRKLQKERKVFEKYTTAARTFPDKKEREEIQTLKQQIADLREDLKRKETKWSSTHSRLRSQIQMLVRENTDLREEIKVMERFRLDAWKRAEAIESSLEVEKKDKLANTSVRFQNSQISSGTQVEKYKKNYLPMQGNPPRRSKSAPPRDLGNLDKGQAASPREPLEPLNFPDPEYKEEEEDQDIQGEISHPDGKVEKVYKNGCRVILFPNGTRKEVSADGKTITVTFFNGDVKQVMPDQRVIYYYAAAQTTHTTYPEGLEVLHFSSGQIEKHYPDGRKEITFPDQTVKNLFPDGQEESIFPDGTIVRVQRDGNKLIEFNNGQRELHTAQFKRREYPDGTVKTVYANGHQETKYRSGRIRVKDKEGNVLMDTEL | significantly inhibited microtubule reassembly |
| GFP-A5N: GFP-tagged CPAP residues 423-607 (protein, UniProt Q9HC77 423-607, looked up, fragment, GFP tag) KTALKNKELCADNPILKKDSKARTKSGSVTLSQKPKMLKCSNRKSLSPSGLKIQTGKKCDGQFRDQIKFENKVTSNNKENVTECPKPCDTGCTGWNKTQGKDRLPLSTGPASRLAAKSPIRETMKESESSLDVSLQKKLETWEREKEKENLELDEFLFLEQAADEISFSSNSSFVLKILERDQQI | no significant inhibition |
| GFP-PN2-2: GFP-tagged CPAP residues 191-310 (protein, UniProt Q9HC77 191-310, looked up, fragment, GFP tag) LSLLPDDQSQKHRSPGNTTTGERATCCFPSYVYPDPTQEETYPSNILSHEQSNFCRTAHGDFVLTSKRASPNLFSEAQYQEAPVEKNNLKEENRNHPTGESILCWEKVTEQIQEANDKNL | no significant inhibition |
| GFP-A5C: GFP-tagged CPAP residues 1070-1338 (protein, UniProt Q9HC77 1070-1338, looked up, fragment, GFP tag) KLANTSVRFQNSQISSGTQVEKYKKNYLPMQGNPPRRSKSAPPRDLGNLDKGQAASPREPLEPLNFPDPEYKEEEEDQDIQGEISHPDGKVEKVYKNGCRVILFPNGTRKEVSADGKTITVTFFNGDVKQVMPDQRVIYYYAAAQTTHTTYPEGLEVLHFSSGQIEKHYPDGRKEITFPDQTVKNLFPDGQEESIFPDGTIVRVQRDGNKLIEFNNGQRELHTAQFKRREYPDGTVKTVYANGHQETKYRSGRIRVKDKEGNVLMDTEL | no significant inhibition |
| GFP-CM: GFP-tagged CPAP residues 132-607, expressed from a transfected vector (protein, UniProt Q9HC77 132-607, looked up, fragment, GFP tag, GFP-tagged CPAP residues 132-607, expressed from a transfected vector) EFKEGAYKDPLFKKLEQLKEVQQKKQEQLKRQQLEQLQRLMEEQEKLLTMVSGQCTLPGLSLLPDDQSQKHRSPGNTTTGERATCCFPSYVYPDPTQEETYPSNILSHEQSNFCRTAHGDFVLTSKRASPNLFSEAQYQEAPVEKNNLKEENRNHPTGESILCWEKVTEQIQEANDKNLQKHDDSSEVANIEERPIKAAIGERKQTFEDYLEEQIQLEEQELKQKQLKEAEGPLPIKAKPKQPFLKRGEGLARFTNAKSKFQKGKESKLVTNQSTSEDQPLFKMDRQQLQRKTALKNKELCADNPILKKDSKARTKSGSVTLSQKPKMLKCSNRKSLSPSGLKIQTGKKCDGQFRDQIKFENKVTSNNKENVTECPKPCDTGCTGWNKTQGKDRLPLSTGPASRLAAKSPIRETMKESESSLDVSLQKKLETWEREKEKENLELDEFLFLEQAADEISFSSNSSFVLKILERDQQI | significantly inhibited microtubule reassembly |
| GFP-A5M2: GFP-tagged CPAP residues 607-1070 (protein, UniProt Q9HC77 607-1070, looked up, fragment, GFP tag) ICKGHRMSSTPVKAVPQKTNPADPISHCNRSEDLDHTAREKESECEVAPKQLHSLSSADELREQPCKIRKAVQKSTSENQTEWNARDDEGVPNSDSSTDSEEQLDVTIKPSTEDRERGISSREDSPQVCDDKGPFKDTRTQEDKRRDVDLDLSDKDYSSDESIMESIKHKVSEPSRSSSLSLSKMDFDDERTWTDLEENLCNHDVVLGNESTYGTPQTCYPNNEIGILDKTIKRKIAPVKRGEDLSKSRRSRSPPTSELMMKFFPSLKPKPKSDSHLGNELKLNISQDQPPGDNARSQVLREKIIELETEIEKFKAENASLAKLRIERESALEKLRKEIADFEQQKAKELARIEEFKKEEMRKLQKERKVFEKYTTAARTFPDKKEREEIQTLKQQIADLREDLKRKETKWSSTHSRLRSQIQMLVRENTDLREEIKVMERFRLDAWKRAEAIESSLEVEKKDK | no significant inhibition |
| GFP-PN1: GFP-tagged CPAP residues 1-132 (protein, UniProt Q9HC77 1-132, looked up, fragment, GFP tag) MFLMPTSSELNSGQNFLTQWMTNPSRAGVILNRGFPILEADKEKRAAVDISTSFPIKGTHFSDSFSFINEEDSLLEEQKLESNNPYKPQSDKSETHTAFPCIKKGPQVAACHSAPGHQEENKNDFIPDLASE | no significant inhibition |
